In patent US7265202 one finds DNA-binding activity in mobility gel shift assay, IL6-treated HepG2 nuclear extracts, (4X)IRF-1 luciferase reporter in human 293 cells, IFN-α stimulation and DNA binding activity in gel retardation assay, nuclear extracts of IFN-treated Daudi B cells data, which are given here for 3 molecules.

Assay in all cases: cell-based or functional assay
Test [1] has as its target STAT3-STAT3 homodimer (human) (UniProt P40763).
Test [2] deals with STAT3-STAT1 heterodimer (human) (UniProt P40763).
STAT3-STAT1 heterodimer (human), sequence (P40763 2-770 limits assumed, chain 1 of 2): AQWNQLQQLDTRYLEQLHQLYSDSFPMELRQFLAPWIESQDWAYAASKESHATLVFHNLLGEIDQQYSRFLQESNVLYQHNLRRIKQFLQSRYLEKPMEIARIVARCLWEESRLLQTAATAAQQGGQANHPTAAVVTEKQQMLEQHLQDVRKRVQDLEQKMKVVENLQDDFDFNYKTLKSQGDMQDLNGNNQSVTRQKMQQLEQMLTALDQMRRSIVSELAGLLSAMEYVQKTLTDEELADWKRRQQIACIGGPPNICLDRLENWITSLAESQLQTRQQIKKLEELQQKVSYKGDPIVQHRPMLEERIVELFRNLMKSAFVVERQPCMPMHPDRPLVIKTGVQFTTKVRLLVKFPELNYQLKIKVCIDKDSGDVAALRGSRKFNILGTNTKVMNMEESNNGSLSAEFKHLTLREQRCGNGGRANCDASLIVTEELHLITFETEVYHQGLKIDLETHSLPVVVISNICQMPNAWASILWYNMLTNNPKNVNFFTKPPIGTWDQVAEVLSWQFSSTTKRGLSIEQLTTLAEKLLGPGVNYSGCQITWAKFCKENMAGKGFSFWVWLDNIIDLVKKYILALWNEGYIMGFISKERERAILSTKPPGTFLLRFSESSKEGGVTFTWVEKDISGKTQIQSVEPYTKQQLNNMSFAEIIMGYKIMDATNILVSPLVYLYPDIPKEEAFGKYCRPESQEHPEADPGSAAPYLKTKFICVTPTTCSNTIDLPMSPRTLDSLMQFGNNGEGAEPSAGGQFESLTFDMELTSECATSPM
STAT3-STAT1 heterodimer (human), sequence (P42224 2-750 limits assumed, chain 2 of 2, further chain): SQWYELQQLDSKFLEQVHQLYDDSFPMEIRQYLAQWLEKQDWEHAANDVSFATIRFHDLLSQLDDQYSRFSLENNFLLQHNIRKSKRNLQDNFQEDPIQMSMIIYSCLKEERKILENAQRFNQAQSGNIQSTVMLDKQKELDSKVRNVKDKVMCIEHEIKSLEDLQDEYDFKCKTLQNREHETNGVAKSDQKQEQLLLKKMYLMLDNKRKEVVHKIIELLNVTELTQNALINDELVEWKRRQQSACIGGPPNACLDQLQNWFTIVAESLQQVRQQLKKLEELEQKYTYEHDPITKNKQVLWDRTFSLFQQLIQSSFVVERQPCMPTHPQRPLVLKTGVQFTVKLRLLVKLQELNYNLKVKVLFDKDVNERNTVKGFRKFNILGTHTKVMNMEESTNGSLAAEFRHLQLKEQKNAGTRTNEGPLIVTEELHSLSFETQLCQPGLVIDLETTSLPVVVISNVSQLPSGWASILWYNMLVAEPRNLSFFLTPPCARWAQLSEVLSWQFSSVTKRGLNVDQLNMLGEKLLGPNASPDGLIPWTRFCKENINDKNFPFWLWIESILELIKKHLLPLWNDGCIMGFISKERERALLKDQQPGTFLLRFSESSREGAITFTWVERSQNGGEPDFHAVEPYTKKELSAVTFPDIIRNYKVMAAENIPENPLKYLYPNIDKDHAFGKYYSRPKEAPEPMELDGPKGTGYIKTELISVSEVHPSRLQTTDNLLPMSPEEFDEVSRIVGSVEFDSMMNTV
Test [3] addresses STAT3 (from a transfected expression vector).
The target of test [4] is STAT1 (from a transfected expression vector).
STAT1 (from a transfected expression vector), sequence (P42224 2-750): as the sequence (P42224 2-750 limits assumed, chain 2 of 2, further chain) above
Test [5] has as its target STAT1 in interferon-treated human cells (human) (UniProt P42224).

STAT3-STAT3 homodimer (human), sequence (P40763 2-770 limits assumed): as the sequence (P40763 2-770 limits assumed, chain 1 of 2) above
STAT1 in interferon-treated human cells (human), sequence (P42224 2-750 limits assumed): as the sequence (P42224 2-750 limits assumed, chain 2 of 2, further chain) above

B1: recombinant fusion protein of GST with PIAS3 (protein, not shown: a dimerising Fc or GST)
chain: MVMSFRVSELQVLLGFAGRNKSGRKHELLAKALHLLKSSCAPSVQMKIKELYRRRFPRKTLGPSDLSLLSLPPGTSPPVHPDVTMKPLPFYEVYGELIRPTTLASTSSQRFEEAHFTFALTPQQLQQILTSREVLPGAKCDYTIQVQLRFCLCETSCPQEDYFPPNLFVKVNGKLCPLPGYLPPTKNGAEPRGPAVRSTSHPWLDSQPLSPTPSLLIGHLSLDGITPCPCLVRQLTAGTLLQKLRAKGIRNPDHSRALIKEKLTADPDSEVATTSLPGVTHVPARKMRLTVPCRALTCAHLQSFDAALYLQMNEKKPTWTCPVCDKKAPYESLIIDGLFMEILNSCSDDDEIQFMEDGSWCPMKPKKEASEVCPPPGYGLDGLQYSAVQEGIQPESKKRVEVIDLTIESSSDEEDLPPTKKHCSPTSAAIPALPGSKGALTSGHQPSSVLRSPAMGTLGSDFLSSLPVHEYPPAFPLGADIQGLDLFSFLQTESQQYGPSVIISLDEQDTLGHFFQYRGTPSHFLGPLAPTLGSCHGSSTPAPPPGRVSSIVAPGSSLREGHGGPLPSGPSLTGCRSDVISLD
On to B1, for which the DNA-binding activity in mobility gel shift assay, IL6-treated HepG2 nuclear extracts in test [1] and in test [2] was 100 ng each time.

B2: FLAG-tagged PIAS3 (protein, not shown: small tags and cut ends)
chain: B1 chain
For the molecule B2, the (4X)IRF-1 luciferase reporter in human 293 cells, IFN-α stimulation in test [3] and in test [4] was 1 µg each time.

B3: recombinant fusion protein of glutathione-S-transferase (GST) with PIAS1 (protein, not shown: a dimerising Fc or GST)
chain: MADSAELKQMVMSLRVSELQVLLGYAGRNKHGRKHELLTKALHLLKAGCSPAVQMKIKELYRRRFPQKIMTPADLSIPNVHSSPMPPTLSPSTIPQLTYDGHPASSPLLPVSLLGPKHELELPHLTSALHPVHPDIKLQKLPFYDLLDELIKPTSLASDNSQRFRETCFAFALTPQQVQQISSSMDISGTKCDFTVQVQLRFCLSETSCPQEDHFPPNLCVKVNTKPCSLPGYLPPTKNGVEPKRPSRPINITSLVRLSTTVPNTIVVSWTAEIGRNYSMAVYLVKQLSSTVLLQRLRAKGIRNPDHSRALIKEKLTADSDSEIATTSLRVSLLCPLGKMRLTIPCRALTCSHLQCFDATLYIQMNEKKPTWVCPVCDKKAPYEHLIIDGLFMEILKYCTDCDEIQFKEDGSWAPMRSKKVQEVTASYNGVDGCLSSTLEHQVASHNQSSNKNKKVEVIDLTIDSSSDEEEEEPPAKRTCPSLSPTSPLSNKGILSLPHQASPVSRTPSLPAVDTSYINTSLIQDYRHPFHMTPMPYDLQGLDFFPFLSGDNQHYNTSLLAAAAAAVSDDQDLLHSSRFFPYTSSQMFLDQLSAGGSTSLPATNGSSSGSNSSLVSSNSLRESHGHGVASRSSADTASIFGIIPDIISLD
B3 showed a DNA binding activity in gel retardation assay, nuclear extracts of IFN-treated Daudi B cells in test [5] of 45 ng.
